Here are results for eight molecules from US20130039923A1 (Novo Nordisk, published 2013).

B5: recombinant human interleukin-20 (ligand)
chain: LKTLNLGSCVIATNLQEIRNGFSEIRGSVQAKDGNIDIRILRRTESLQDTKPANRCCLLRHLLRLYLDRVFKNYQTPDHYTLRKISSLANSFLTIKKDLRLCHAHMTCHCGEEAMKKYSQILSHFEKLEPQAAVVKALGELDILLQWMEETE

Test [1] addresses cynomolgus IL22R1/IL20R2 receptor complex (cynomolgus monkey). The test is described as follows: cell-based or functional assay.
Test [2] has as its target cynomolgus IL20R1/IL20R2 receptor complex (cynomolgus monkey). The test is described as follows: cell-based or functional assay.
Test [3] has as its target B5. The test is described as follows: cell-based or functional assay.
The target of test [4] is B5. The test is described as follows: SPR (Biacore 3000/T100), antibody amine-coupled on CM5, recombinant hIL20 injected 3.125-100 nM, 1:1 Langmuir, 25 C; antibody from HEK293. For orientation: Surface plasmon resonance follows binding to a sensor surface in real time, without labels.
Description: (§1) Affinity studies were performed using a direct binding procedure, with the monoclonal antibody covalently coupled via free amine groups to the carboxymethylated dextrane membrane (CM5) on the sensor chip surface. […] The kinetic parameters for the interaction could be calculated using a 1:1 interaction Langmuir fitting model.
(§2) The purified monoclonal antibodies were immobilized in individual flow cells on a CM5 type sensor chip. Immobilizations were performed using a standard amine coupling procedure, aiming for an immobilization level of 1000 Resonance Units (RU). The antibodies were diluted to 5 μg/ml in 10 mM NaAc pH 5.0. […] Association (injection) was 3 min., followed by a 30 min. dissociation (wash) period. Flow rate was 30 μl/min. Experiments were performed at 25° C. Regeneration of the surface following each cycle, was accomplished by injection of 30 sec. pulse of 10 mM Glycin-HCl pH 1.8, at a 30 ul/min flow rate. Detection in all flow cells simultaneously. Flow cell No. 1 contained no immobilized antibody, and was used for subtraction of background and bulk. […] Data was inspected for mass-transport limitations prior to calculation of the kinetic parameters. Experiments were performed on Biacore 3000 and T100 instruments. Data was evaluated using Biaeval 4.1 and Biacore T100 evaluation software.
The target in test [5] is B5. The test is described as follows: SPR (Biacore 3000/T100), antibody amine-coupled on CM5, recombinant hIL20 injected 3.125-100 nM, 1:1 Langmuir, 25 C; antibody from CHO.
Description: as §1, §2
For test [6], the target named is T1, human IL20R1/IL20R2 receptor complex (human, UniProt Q9UHF4 30-553; Q6UXL0 30-311).
T1 sequence (looked up) 1: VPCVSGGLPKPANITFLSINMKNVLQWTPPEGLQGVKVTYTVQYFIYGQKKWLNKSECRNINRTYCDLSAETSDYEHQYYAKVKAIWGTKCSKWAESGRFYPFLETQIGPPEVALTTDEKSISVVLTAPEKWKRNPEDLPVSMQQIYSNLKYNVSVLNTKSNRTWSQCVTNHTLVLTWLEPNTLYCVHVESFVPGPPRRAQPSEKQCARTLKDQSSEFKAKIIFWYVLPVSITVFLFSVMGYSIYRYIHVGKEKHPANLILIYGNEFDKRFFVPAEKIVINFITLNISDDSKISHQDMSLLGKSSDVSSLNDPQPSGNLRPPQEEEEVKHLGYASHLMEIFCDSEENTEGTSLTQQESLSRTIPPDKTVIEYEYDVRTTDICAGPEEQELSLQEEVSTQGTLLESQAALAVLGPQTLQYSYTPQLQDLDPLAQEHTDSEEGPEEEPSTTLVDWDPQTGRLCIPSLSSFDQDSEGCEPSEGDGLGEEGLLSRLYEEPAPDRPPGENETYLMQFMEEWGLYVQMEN
T1 sequence (looked up) 2: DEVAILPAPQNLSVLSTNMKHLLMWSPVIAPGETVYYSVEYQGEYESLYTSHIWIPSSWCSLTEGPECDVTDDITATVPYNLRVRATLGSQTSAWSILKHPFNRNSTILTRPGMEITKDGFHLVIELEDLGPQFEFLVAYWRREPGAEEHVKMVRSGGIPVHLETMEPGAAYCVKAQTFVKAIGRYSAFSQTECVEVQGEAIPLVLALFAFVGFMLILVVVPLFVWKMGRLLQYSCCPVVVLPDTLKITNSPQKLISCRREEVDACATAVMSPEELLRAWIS
The test is described as follows: cell-based or functional assay.

The target in test [7] is T2, human IL22R1/IL20R2 receptor complex (human, UniProt Q8N6P7 16-574; Q6UXL0 30-311).
T2 sequence (looked up) 1: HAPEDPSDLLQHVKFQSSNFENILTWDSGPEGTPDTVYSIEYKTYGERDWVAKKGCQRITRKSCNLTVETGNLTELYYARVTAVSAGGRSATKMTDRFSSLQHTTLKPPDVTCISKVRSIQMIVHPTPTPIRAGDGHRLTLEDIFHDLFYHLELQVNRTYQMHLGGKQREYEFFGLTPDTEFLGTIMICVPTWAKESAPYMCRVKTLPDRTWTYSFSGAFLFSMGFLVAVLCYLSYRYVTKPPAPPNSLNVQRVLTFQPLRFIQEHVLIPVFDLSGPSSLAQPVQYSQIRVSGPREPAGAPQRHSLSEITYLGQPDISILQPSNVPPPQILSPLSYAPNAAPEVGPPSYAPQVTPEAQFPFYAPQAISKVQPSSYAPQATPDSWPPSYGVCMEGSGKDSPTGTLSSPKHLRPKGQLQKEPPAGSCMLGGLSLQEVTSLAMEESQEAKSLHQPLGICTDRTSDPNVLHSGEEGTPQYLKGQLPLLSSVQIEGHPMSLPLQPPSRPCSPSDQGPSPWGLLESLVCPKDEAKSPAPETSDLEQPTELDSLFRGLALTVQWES
T2 sequence (looked up) 2: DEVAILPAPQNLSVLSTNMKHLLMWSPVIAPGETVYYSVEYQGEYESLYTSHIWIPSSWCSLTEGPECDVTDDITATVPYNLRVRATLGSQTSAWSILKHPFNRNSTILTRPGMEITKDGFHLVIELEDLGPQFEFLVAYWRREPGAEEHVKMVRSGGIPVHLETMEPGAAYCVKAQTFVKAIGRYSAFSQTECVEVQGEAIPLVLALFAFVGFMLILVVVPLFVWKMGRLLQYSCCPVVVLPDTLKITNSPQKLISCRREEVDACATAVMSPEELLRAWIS
The test is described as follows: cell-based or functional assay.

In test [8] the target is T1, human IL20R1/IL20R2 receptor complex. The test is described as follows: inferred from BaF-3(hIL20R) proliferation; IL19 reverted the 15D2 block.

“cynomolgus IL20 (from UniProt Q9NYY1 25-176) (ligand)”: the fold induction of luciferase reporter in transfected BHK cells, 1 nM cynoIL20 in test [1] was 3 to 4 fold; in test [2], 2 fold.

B1: F18 (LC: F56Type1; HC: F18) (antibody, human IgG4, V domains shown)
VH: QVQVVQSGAEVKKPGASVRVSCTASGYTFTDYAIHWVRQAPGQRLEWMGWINAGYGNTKYSQKFQGRVTITRDTSASTVYMELSSLRSEDTAVYYCAREGGALSWFGESQGFDYWGQGTLVT
VL: AIQLTQSPSSLSASVGDRVTITCRASQGISSALAWYQQKPGKAPKLLIYDASSLESGVPSRFSGSGSGTDFTLTISSLQPEDFATYYCQQFNSYPLTFGGGTKVEIKR
As to B1, the “IC50, inhibition of IL20 induced proliferation of BaF-3(hIL20R) at 1e-9M hIL20 (assay 5)” value (“IC50, inhibition … (assay 5)” for short) in test [3] amounted to 50 nM.

B2: human anti-IL20 antibody C11 (antibody, human IgG1, V domains shown)
VH: QVQLVQSGAEVKRPGASVKVSCKASGYTFTNDIIHWVRQAPGQRLEWMGWINAGYGNTQYSQNFQDRVSITRDTSASTAYMELISLRSEDTAVYYCAREPLWFGESSPHDYYGMDVWGQGTTVTVSS
VL: AIQLTQSPSSLSASVGDRVTITCRASQGISSALAWYQQKPGKAPKLLIYDASSLESGVPSRFSGSGSGTDFTLTISSLQPEDFATYYCQQFNSYPLTFGGGTKVEIKR
With B2, in test [3], the “IC50, inhibition of IL20 induced proliferation of BaF-3(hIL20R) at 1e-9M hIL20 (assay 1)” value is 260 nM; the “IC50, inhibition of IL20 induced proliferation of BaF-3(hIL20R) at 1e-9M hIL20 (assay 2)” value came to 2000 nM; the “IC50, inhibition of IL20 induced proliferation of BaF-3(hIL20R) at 1e-9M hIL20 (assay 3)” value worked out at 370 nM; the “IC50, inhibition of IL20 induced proliferation of BaF-3(hIL20R) at 1e-9M hIL20 (assay 7)” value was 186 nM.

B3: 15D2 with an S241P mutation (antibody, V domains shown)
VH: QVQLVQSGAEVKRPGASVKVSCKASGYTFTNDIIHWVRQAPGQRLEWMGWINAGYGNTQYSQNFQDRVSITRDTSASTAYMELISLRSEDTAVYYCAREPLWFGESSPHDYYGMDVWGQGTTVTVSS
VL: AIQLTQSPSSLSASVGDRVTITCRASQGISSALAWYQQKPGKAPKLLIYDASSLESGVPSRFSGSGSGTDFTLTISSLQPEDFATYYCQQFNSYPLTFGGGTKVEIKR
notes: IgG4 hinge mutation S241P (Kabat); Expressed in HEK293 or CHO cells (host named under assay); also called 15D2-S241P; not shown: human IgG4 heavy chain constant region
In general, Kd refers to a measure of binding affinity in units of concentration. One may read the koff as the first-order rate constant of dissociation. The term kon denotes a measure of how fast the partners come together. For the molecule B3, in test [4], the Kd is 0.036 nM, the koff was 6.8e-05 s⁻¹ and the kon turned out to be 1.7e+06 M⁻¹ s⁻¹. Besides, in test [5], the Kd was 0.031 nM, the koff stood at 7.1e-05 s⁻¹ and the association rate constant (kon) is 2.3e+06 M⁻¹ s⁻¹.

B4: F56 (LC: F56Type1; HC: F56) (antibody, human IgG4, V domains shown)
VH: QVQLVQSGAEVKKPGASVRVSCTASGYTFPNYAIHWVRQAPGQRLEWMGWINAGYGNTKYSQKFQGRVTITRDTSASTAYMELSSLRSEDTAVYYCAREGGVLLWFGESQGFDYWGQGTLVT
VL: AIQLTQSPSSLSASVGDRVTITCRASQGISSALAWYQQKPGKAPKLLIYDASSLESGVPSRFSGSGSGTDFTLTISSLQPEDFATYYCQQFNSYPLTFGGGTKVEIKR
For the molecule B4, in test [3], the “IC50, inhibition of IL20 induced proliferation of BaF-3(hIL20R) at 1e-9M hIL20 (assay 4)” value is 40 nM and the “IC50, inhibition … (assay 5)” value was 730 nM.
As to B5, the “fold induction of luciferase reporter in transfected BHK cells, 1 nM hIL20” value in test [6] and in test [7] was around 3 fold each time.

B6: human anti-IL20 antibody 2F6 (antibody, human IgG4, V domains shown)
VH: QITLKESGPTLVKPTQTLTLTCTFSGFSFSTNGVGVGWIRQPPGKALEWLALIYWNDDKRYSPSLKSRLTITKDTSKNQVVLTMTNMDPLDTATYYCAHSPFIMVRGVIITFFDFWGQGTLVT
VL: VIWMTQSPSLLSASTGDRVTISCRMSQGISSYLAWYQQKPGKAPELLIYAASTLQSGVPSRFSGSGSGTDFTLTISCLQSEDFATYYCQQYYSFPLTFGGGTKVEIKR
On to B6, for which, in test [3], the “IC50, inhibition of IL20 induced proliferation of BaF-3(hIL20R) at 1e-9M hIL20 (assay 1)” value was 15400 nM; the “IC50, inhibition of IL20 induced proliferation of BaF-3(hIL20R) at 1e-9M hIL20 (assay 2)” value was found to be 13900 nM; the “IC50, inhibition of IL20 induced proliferation of BaF-3(hIL20R) at 1e-9M hIL20 (assay 3)” value is 1670 nM; the “IC50, inhibition of IL20 induced proliferation of BaF-3(hIL20R) at 1e-9M hIL20 (assay 4)” value worked out at 360 nM. In test [3], the “IC50, inhibition … (assay 5)” value turned out to be 1800 nM; the “IC50, inhibition of IL20 induced proliferation of BaF-3(hIL20R) at 1e-9M hIL20 (assay 6)” value is 320 nM; the “IC50, inhibition of IL20 induced proliferation of BaF-3(hIL20R) at 1e-9M hIL20 (assay 7)” value amounted to 15400 nM.

B7: human IL19 (ligand)
chain: LRRCLISTDMHHIEESFQEIKRAIQAKDTFPNVTILSTLETLQIIKPLDVCCVTKNLLAFYVDRVFKDHQEPNPKILRKISSIANSFLYMQKTLRQCQEQRQCHCRQEATNATRVIHDNYDQLEVHAAAIKSLGELDVFLAWINKNHEVMFSA
notes: Bought from R&D systems; whole entry named; also called hIL19
For the molecule B7, the binding result in test [8] is reported as “binds”.
